Data taken from the Immune Epitope Database (IEDB).

How the values were obtained:
[1] = molecular target: HLA-A*24:02; test: IEDB peptide-MHC binding, purified MHC/competitive/fluorescence; filed as Kd, often an IC50 or EC50 that approximates it; ≥ and ≤ were set here for values at or beyond the usual limits of such assays
[2] = molecular target: HLA-B*40:01; test: as above; details: source organism: Pseudomonas sp. MIS38
[3] = molecular target: HLA-A*02:01; test: as above; details: source organism: Pseudomonas sp. MIS38
[4] = molecular target: HLA-A*02:11; test: as above; details: source organism: Pseudomonas sp. MIS38
[5] = molecular target: HLA-A*30:01; test: as above; details: source organism: Pseudomonas sp. MIS38
[6] = molecular target: HLA-B*27:05; test: as above; details: source organism: Pseudomonas sp. MIS38
[7] = molecular target: HLA-A*11:01; test: as above; details: source organism: Pseudomonas sp. MIS38
[8] = molecular target: HLA-A*02:19; test: as above; details: source organism: Pseudomonas sp. MIS38
[9] = molecular target: HLA-A*02:06; test: as above; details: source organism: Pseudomonas sp. MIS38
[10] = molecular target: HLA-A*69:01; test: as above; details: source organism: Pseudomonas sp. MIS38
[11] = molecular target: HLA-A*02:16; test: as above; details: source organism: Pseudomonas sp. MIS38
[12] = molecular target: HLA-B*07:02; test: as above; details: source organism: Pseudomonas sp. MIS38
[13] = molecular target: HLA-B*58:01; test: as above; details: source organism: Pseudomonas sp. MIS38
[14] = molecular target: HLA-B*15:01; test: as above; details: source organism: Pseudomonas sp. MIS38
[15] = molecular target: HLA-A*01:01; test: as above; details: source organism: Pseudomonas sp. MIS38
[16] = molecular target: HLA-A*02:50; test: as above; details: source organism: Pseudomonas sp. MIS38
[17] = molecular target: HLA-A*03:01; test: as above; details: source organism: Pseudomonas sp. MIS38
[18] = molecular target: HLA-A*02:12; test: as above; details: source organism: Pseudomonas sp. MIS38
[19] = molecular target: HLA-A*02:03; test: as above; details: source organism: Pseudomonas sp. MIS38
[20] = molecular target: HLA-A*24:02; test: IEDB peptide-MHC binding, purified MHC/competitive/fluorescence; ≥ and ≤ were set here for values at or beyond the usual limits of such assays
[21] = molecular target: HLA-A*29:02; test: as above
[22] = molecular target: HLA-A*02:01; test: as above
[23] = molecular target: HLA-A*68:02; test: as above
[24] = molecular target: HLA-A*11:01; test: as above
[25] = molecular target: HLA-B*08:01; test: as above
[26] = molecular target: HLA-B*37:01; test: as above
[27] = molecular target: HLA-B*51:01; test: as above
[28] = molecular target: HLA-B*07:02; test: as above
[29] = molecular target: HLA-B*35:01; test: as above
[30] = molecular target: HLA-B*58:01; test: as above
[31] = molecular target: HLA-B*18:01; test: as above
[32] = molecular target: HLA-B*44:03; test: as above
[33] = molecular target: HLA-A*01:01; test: as above
[34] = molecular target: HLA-B*53:01; test: as above
[35] = molecular target: HLA-A*03:01; test: as above
[36] = molecular target: HLA-B*40:02; test: as above
[37] = molecular target: HLA-B*14:02; test: as above
[38] = molecular target: HLA-A*25:01; test: as above
[39] = molecular target: HLA-A*31:01; test: as above
[40] = molecular target: HLA-C*07:02; test: IEDB peptide-MHC binding, purified MHC/direct/fluorescence; filed as Kd, often an IC50 or EC50 that approximates it; ≥ and ≤ were set here for values at or beyond the usual limits of such assays; details: source organism: SARS-CoV1
[41] = molecular target: HLA-A*29:02; test: IEDB peptide-MHC binding, purified MHC/competitive/radioactivity; filed as Kd, often an IC50 or EC50 that approximates it; ≥ and ≤ were set here for values at or beyond the usual limits of such assays; details: source organism: SARS coronavirus Tor2
[42] = molecular target: HLA-A*23:01; test: as above; details: source organism: SARS coronavirus Tor2
[43] = molecular target: HLA-A*01:01; test: as above; details: source organism: SARS coronavirus Tor2
[44] = molecular target: HLA-A*26:01; test: as above; details: source organism: SARS coronavirus Tor2
[45] = molecular target: HLA-A*30:02; test: as above; details: source organism: SARS coronavirus Tor2
[46] = source organism: Monodelphis domestica
[47] = source organism: Gorilla gorilla gorilla

Sequence: YMLKDSAPT
- Kd ([1]; source organism: Pseudomonas sp. MIS38): ≥ 20 µM
- Kd [2]: ≥ 20 µM
- Kd [3]: 0.0602 µM
- Kd [4]: 0.0094 µM
- Kd [5]: ≥ 20 µM
- Kd [6]: ≥ 20 µM
- Kd [7]: ≥ 20 µM
- Kd [8]: 0.0114 µM
- Kd [9]: 0.0023 µM
- Kd [10]: 2 µM
- Kd [11]: 0.0005 µM
- Kd [12]: ≥ 20 µM
- Kd [13]: ≥ 20 µM
- Kd [14]: 3.35 µM
- Kd [15]: ≥ 20 µM
- Kd [16]: 0.03 µM
- Kd [17]: ≥ 20 µM
- Kd [18]: 0.0019 µM
- Kd [19]: 0.0042 µM

Sequence: YSLEYFQFVKK
- IC50 [20, 46]: ≥ 20 µM
- IC50 [21, 46]: ≥ 20 µM
- IC50 [22, 46]: ≥ 20 µM
- IC50 [23, 46]: ≥ 20 µM
- IC50 [24, 46]: 2.9 µM
- IC50 [25, 46]: ≥ 20 µM
- IC50 [26, 46]: ≥ 20 µM
- IC50 [27, 46]: ≥ 20 µM
- IC50 [28, 46]: ≥ 20 µM
- IC50 [29, 46]: ≥ 20 µM
- IC50 [30, 46]: ≥ 20 µM
- IC50 [31, 46]: ≥ 20 µM
- IC50 [32, 46]: ≥ 20 µM
- IC50 [33, 46]: ≥ 20 µM
- IC50 [34, 46]: ≥ 20 µM
- IC50 [35, 46]: ≥ 20 µM
- IC50 [36, 46]: ≥ 20 µM
- IC50 [37, 46]: ≥ 20 µM
- IC50 [38, 46]: ≥ 20 µM
- IC50 [39, 46]: ≥ 20 µM

Sequence: NYMPYVFTL
- Kd [40]: ≤ 0.001 µM
- Kd ([1]; source organism: SARS-CoV1): ≤ 0.0001 µM
- Kd [41]: 0.369 µM
- Kd [42]: 0.00637 µM
- Kd [43]: ≥ 78.1 µM
- Kd [44]: ≥ 51.8 µM
- Kd [45]: 18.2 µM

Sequence: RYSHWTKL
- IC50 [20, 47]: 0.161 µM
- IC50 [21, 47]: ≥ 20 µM
- IC50 [22, 47]: ≥ 20 µM
- IC50 [23, 47]: ≥ 20 µM
- IC50 [24, 47]: ≥ 20 µM
- IC50 [25, 47]: ≥ 20 µM
- IC50 [26, 47]: ≥ 20 µM
- IC50 [27, 47]: ≥ 20 µM
- IC50 [28, 47]: 17.3 µM
- IC50 [29, 47]: ≥ 20 µM
- IC50 [30, 47]: ≥ 20 µM
- IC50 [31, 47]: ≥ 20 µM
- IC50 [32, 47]: ≥ 20 µM
- IC50 [33, 47]: ≥ 20 µM
- IC50 [34, 47]: ≥ 20 µM
- IC50 [35, 47]: ≥ 20 µM
- IC50 [36, 47]: ≥ 20 µM
- IC50 [37, 47]: ≥ 20 µM
- IC50 [38, 47]: ≥ 20 µM
- IC50 [39, 47]: ≥ 20 µM
